Data as given in patent publication US11324803B2, “Methods and compositions for treatment of Gaucher Disease via modulation of C5a receptor” (Children's Hospital Medical Center, priority 2015, dated 2022).

What was measured:
[1] = molecular target: T1, C5aR1 (Mus musculus, UniProt P30993); test: C5aR antagonist A8^Δ71-73 (C5aRA) i.p. treatment of Gaucher disease-prone 9V/null mice; assay type: in vivo; conditions: for pro-inflammatory cytokine (and chemokine) production: DCs and T cells of C5aRA-treated 9V/null mice
T1 construct: endogenous in cells; host or cells: WT and 9V/null mice (mixed FVB/C57BL 6J/129SvEvBrd background), in vivo
T1 sequence (P30993 1-351): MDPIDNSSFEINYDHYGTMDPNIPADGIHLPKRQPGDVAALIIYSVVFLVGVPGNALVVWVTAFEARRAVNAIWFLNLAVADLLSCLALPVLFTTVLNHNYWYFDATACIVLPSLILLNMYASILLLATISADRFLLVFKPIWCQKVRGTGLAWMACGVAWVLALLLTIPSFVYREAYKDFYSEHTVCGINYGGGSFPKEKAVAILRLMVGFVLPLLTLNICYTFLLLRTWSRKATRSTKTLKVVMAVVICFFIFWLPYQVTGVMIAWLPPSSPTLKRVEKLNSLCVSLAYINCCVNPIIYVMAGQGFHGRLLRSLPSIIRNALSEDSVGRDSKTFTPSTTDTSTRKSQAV
Text: Sera from human patients with Gaucher disease (n=10) and healthy volunteers (n=15) were from the freezer and de-identified. Human patients with Gaucher disease were diagnosed at Cincinnati Children's Hospital Medical Center (CCHMC). […] The study was approved by the ethics committee at CCHMC. In vivo C5aR1 deficiency or blockade in 9V/null mice and in a CBE-induced mouse model of Gaucher disease. To assess the impact of genetic or pharmacological targeting of C5aR1 on the inflammatory response in Gaucher disease, WT (n=10) and C5aR1^−/− mice (n=10) were treated with conduritol B epoxide (CBE), which is an irreversible inhibitor of acid β-glucosidase^24. More specifically, both mouse strains were injected intraperitoneally (i.p.) with 100 mg CBE/kg body weight or vehicle (PBS)/day for up to 60 days, which was the termination point of these experiments. After 60 days of the indicated treatment with CBE, immune cells (MΦs, DCs, and T cells) were purified from lung of these mouse strains and used for measurement of GC, costimulatory molecules, and several of the pro-inflammatory cytokines. In additional experiments, WT (n=15) or 9V/null mice (n=15) were injected with 100 μl of the C5aR antagonist A8^Δ71-73 (i.p. 0.5 mg/kg) or vehicle (100 μl, PBS) on five consecutive days. Five days after the final C5aRA treatment, liver, spleen and lung were separated and measured for GC accumulation. Further, DCs and CD4^+ T cells were purified from the lung of the indicated mouse strains and measured for costimulatory molecule expression and the production of pro-inflammatory cytokines. Preparation of tissue cells. Liver, spleen, lung and BM were harvested aseptically. Single cell suspensions from liver and lung were obtained from minced pieces that were treated with Liberase Cl (0.5 mg/mL) and DNase (0.5 mg/mL) in RPMI (45 min, 37° C.). Single cell suspensions from spleen were obtained by grinding and then filtration through a 70-micron cell strainer. […] For BM cells, femurs, tibias and humeri were flushed with sterile phosphate buffered saline (PBS), followed by RBC lysis (155 mM NH4Cl, 10 mM NaHCO3, 0.1 mM EDTA), passage through a strainer. Cells were then pelleted by centrifugation at 350×g. Viable cells were counted using a Neubauer chamber and trypan blue exclusion. DCs, MΦs, and CD4^+ T lymphocytes were purified from single cell suspensions of liver, spleen, and lung using CD11c, CD11b, and CD4 (L3T4) microbeads according to the manufacturer's protocol. The purity of the cells was ˜90%-95%.
Tissue cells were suspended in PBS containing 1% BSA. After incubation (15 min, 4° C.) with Fc©R-blocking antibody 2.4G2, cells were stained (45 min, 4° C.) with the following antibodies to identify APCs and T cell: CD4 for T cells; CD11b and F4/80 for Ms; and CD11b and CD11c for DCs. Cells were also stained with the respective isotype antibodies as controls. MΦs were first identified by their typical FSC/SSC pattern, F4/80 and CD11 expression. DCs were identified as CD11c^+CD11b^+ cells. Further, CD40, CD80 CD86 and C5aR1 expression was determined in tissue DCs. T cells were first characterized by their FSC/SSC pattern and CD3 staining. CD3^+T cells were further stained for CD4, CD40L and CD69 expression. A total of […] were acquired for each cell type isolated from the different organs. Specific surface expression was assessed relative to the expression of the corresponding isotype control antibody. Fortessa-I, Fortessa-II, and LSRII flow cytometers were used to characterize the cells. FCS express (version 4; DeNovo Software) was used to analyze the data.
Lipids were extracted from tissues (5 mg; liver, spleen, and lung), purified immune cells, (e.g., MΦ, DCs, and CD4^+T) and GC-specific IgG2a by chloroform and methanol^2, 25, 26. […]

[2] = molecular target: T2, mouse C5aR2 (C5L2) (Mus musculus, UniProt Q8BW93); conditions: cited from earlier work
T2 sequence (Q8BW93 1-344): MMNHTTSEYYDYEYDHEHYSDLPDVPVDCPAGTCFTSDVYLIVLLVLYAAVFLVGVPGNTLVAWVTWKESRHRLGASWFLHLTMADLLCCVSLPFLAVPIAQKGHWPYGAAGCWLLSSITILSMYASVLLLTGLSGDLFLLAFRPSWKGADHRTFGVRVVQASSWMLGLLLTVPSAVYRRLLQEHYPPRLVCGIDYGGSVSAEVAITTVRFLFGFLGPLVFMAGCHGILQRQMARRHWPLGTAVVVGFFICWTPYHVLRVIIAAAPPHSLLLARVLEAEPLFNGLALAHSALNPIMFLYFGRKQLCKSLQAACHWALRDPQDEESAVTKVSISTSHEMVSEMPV

[3] = C5aRA-treated 9V/null mice, i.p. 0.5 mg/kg on five consecutive days, CD68+ immunohistochemistry
[4] = C5aRA-treated vs vehicle-injected 9V/null mice, ESI-LC-MS/MS
[5] = DC/CD4+ T cell co-culture 48 h from C5aRA-treated mice, ELISA
[6] = in response to C5aRA treatment, flow cytometry

B1: Thr Leu Gln Lys Lys Ile Glu Glu Ile Ala Ala Lys Tyr Lys His Ser Val Val Lys Lys Cys Cys Tyr Asp Gly Ala Ala Val Asn Asn Asp Glu Thr Cys Glu Gln Arg Ala Ala Arg Ile Ser Leu Gly Pro Arg Cys Ile Lys Ala … (protein)
chain: TLQKKIEEIAAKYKHSVVKKCCYDGAAVNNDETCEQRAARISLGPRCIKAFTECCVVASQLRANISFKRS
modifications: mutant C5a-(1-66, Cys27A1a) -A8B-Del. 71-73 of human C5a
notes: positions 27 and 68-71 of human C5a mutated and positions 72-74 deleted
- co-stimulatory molecule expression in DCs and CD4+ T cells ([1]; C5aRA-treated 9V/null mice): marked reduction
- MΦ infiltration of the liver [1, 3]: substantially reduced
- MΦ infiltration of the lung [1, 3]: substantially reduced
- MΦ infiltration of the spleen [1, 3]: substantially reduced
- co-stimulatory molecule expression in DCs and CD4+ T cells ([1]; C5aRA-treated 9V/null mice, listed as C5aR antagonist A8^Δ71-73): decreased levels
- GCs ([1]; C5aRA-treated 9V/null mice, liver and spleen (FIG. 12)): marked reduction
- GC storage in liver [1, 4]: significantly decreased
- GC storage in lung [1, 4]: significantly decreased
- GC storage in spleen [1, 4]: significantly decreased
- IFN-γ production [1, 5]: markedly decreased
- IL-1 production [1, 5]: markedly decreased
- IL-6 production [1, 5]: markedly decreased
- IL-17 production [1, 5]: markedly decreased
- TNF-α production [1, 5]: markedly decreased
- pro-inflammatory cytokine (and chemokine) production [1]: marked reduction
- pro-inflammatory cytokine (and chemokine) production ([1]; listed as C5aR antagonist A8^Δ71-73): less
- GC accumulation in MΦs ([1]; MΦs of treated 9V/null mice): marked reduction
- CD40L expression in CD4+ T cells [1, 6]: significantly reduced
- CD40 expression in pulmonary DCs [1, 6]: significantly reduced
- CD69 expression in CD4+ T cells [1, 6]: significantly reduced
- CD80 expression in pulmonary DCs [1, 6]: significantly reduced
- CD86 expression in pulmonary DCs [1, 6]: significantly reduced
- MΦs, DC and T cells mediated immune inflammation ([1]; mouse model of Gaucher disease, i.p.): significantly reduces
- loss of CD41+ platelets ([1]; treated 9V/null mice): decreased loss
- loss of Ter119+ RBCs ([1]; treated 9V/null mice): decreased loss
- affinity to bind mouse C5aR2 (C5L2) [2]: high affinity
